# Patent US20220242962A1 (APTEVO RESEARCH AND DEVELOPMENT, published 2022)
# T1: Full-length Human OX40 (human, UniProt P43489 29-277)
# T1 construct: also called OXF001; human OX40/CHO
# T1 sequence: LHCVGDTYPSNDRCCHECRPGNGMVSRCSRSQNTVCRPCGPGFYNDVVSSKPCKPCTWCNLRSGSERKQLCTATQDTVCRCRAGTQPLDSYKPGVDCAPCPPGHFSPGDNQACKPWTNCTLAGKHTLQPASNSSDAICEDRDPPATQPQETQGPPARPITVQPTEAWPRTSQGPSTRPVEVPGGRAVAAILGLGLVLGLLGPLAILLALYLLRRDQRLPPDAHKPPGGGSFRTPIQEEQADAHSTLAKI
# T2: Full-length Cyno OX40 (cynomolgus monkey, UniProt P43489 29-277 (human entry))
# T2 construct: on CHO-K1SV cells; also called OXF004; cynomolgus OX40
# T2 chain: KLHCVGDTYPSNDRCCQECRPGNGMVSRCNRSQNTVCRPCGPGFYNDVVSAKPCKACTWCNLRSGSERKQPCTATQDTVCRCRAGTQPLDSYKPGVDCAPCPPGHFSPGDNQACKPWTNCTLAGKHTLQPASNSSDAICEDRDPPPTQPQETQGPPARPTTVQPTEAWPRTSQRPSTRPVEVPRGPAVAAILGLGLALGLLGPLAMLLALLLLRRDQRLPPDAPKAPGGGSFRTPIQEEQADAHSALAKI
# T3: Full-length Cyno 4-1BB (cynomolgus monkey, UniProt Q07011 24-255 (human entry))
# T3 construct: on Jurkat or CHO cells; also called FOB006; cynomolgus 4-1BB
# T3 chain: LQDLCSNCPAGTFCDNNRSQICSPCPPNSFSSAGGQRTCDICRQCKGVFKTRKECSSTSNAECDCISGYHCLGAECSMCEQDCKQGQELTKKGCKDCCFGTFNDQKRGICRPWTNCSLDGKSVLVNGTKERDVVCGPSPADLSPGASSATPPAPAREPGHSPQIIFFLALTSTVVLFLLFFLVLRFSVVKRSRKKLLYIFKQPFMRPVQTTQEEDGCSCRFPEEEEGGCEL
# T4: Human OX40 ECD-AFH (human)
# T4 construct: ECD'; entry includes the C-terminal tags; also called OXF003; Human OX40 ECD-avi-flag-his
# T4 chain: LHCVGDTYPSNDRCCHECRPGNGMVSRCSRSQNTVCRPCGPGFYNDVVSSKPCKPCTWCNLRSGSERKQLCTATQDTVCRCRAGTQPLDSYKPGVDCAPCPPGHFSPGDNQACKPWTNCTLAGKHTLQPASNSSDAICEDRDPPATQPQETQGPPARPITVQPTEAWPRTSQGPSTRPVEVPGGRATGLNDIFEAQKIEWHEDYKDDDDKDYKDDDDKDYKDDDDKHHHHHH
# B1: FXX01047 (bispecific antibody)
# chain: EVQLVQSGAEVKKPGASVKVSCKASGYTFTSYWMNWVRQAPGQGLEWMGNIYPGSSTTNYAQKFQGRVTMTVDTSTSTVYMELSSLRSEDTAVYYCASFSDGYYAYAMDYWGQGTLVTVSSGGGGSGGGGSGGGGSGGGGSEIVMTQSPATLSLSPGERATLSCRASQDISNYLNWYQQKPGQAVRLLIYYTSRLHSGIPARFSGSGSGTDYTLTISSLQPEDFAVYFCQQGYTLPYTFGQGTKVEIKEPKSSDKTHTCPPCPAPPAAAPSVFLFPPKPKDTLMISRTPEVTCVVVDVSHEDPEVKFNWYVDGVEVHNAKTKPREEQYNSTYRVVSVLTVLHQDWLNGKEYKCAVSNKALPAPIEKTISKAKGQPREPQVYTLPPSRDELTKNQVSLTCLVKGFYPSDIAVEWESNGQPENNYKTTPPVLDSDGSFFLYSKLTVDKSRWQQGNVFSCSVMHEALHNHYTQKSLSLSPGGGGSPSSYVLTQPPSVSVAPGQTARITCGGNNIGSKSVNWFQQKPGQAPVLVVYDDSGRPSGIPERFSGSTSGNTATLTISRVEAGDEADYYCQVWDSSSDHVVFGGGTKLTVLGGGGSGGGGSGGGGSGGGGSQVQLVESGGGVVQPGRSLRLSCAASGFTLSYYGMHWVRQAPGKGLEWVAAISHDGSDKYYADSVKGRFTISRDNSKNTLYLQMNSLRAEDTAVYYCSNDQFDPWGQGTLVTVSSR
# notes: ADAPTIR scFv-Fc-scFv, anti-4-1BB N-terminal, anti-OX40 C-terminal; also called FX01047
# B2: FXX01079 (bispecific antibody)
# chain: SYVLTQPPSVSVAPGQTARITCGGNNIGSKSVNWFQQKPGQAPVLVVYDDSGRPSGIPERFSGSTSGNTATLTISRVEAGDEADYYCQVWDSSSDHVVFGGGTKLTVLGGGGSGGGGSGGGGSGGGGSQVQLVESGGGVVQPGRSLRLSCAASGFTLSYYGMHWVRQAPGKGLEWVAVISHDGSDKYYADSVKGRFTISRDNSKNTLYLQMNSLRAEDTAVYYCSNDQFDPWGQGTLVTVEPKSSDKTHTCPPCPAPPAAAPSVFLFPPKPKDTLMISRTPEVTCVVVDVSHEDPEVKFNWYVDGVEVHNAKTKPREEQYNSTYRVVSVLTVLHQDWLNGKEYKCAVSNKALPAPIEKTISKAKGQPREPQVYTLPPSRDELTKNQVSLTCLVKGFYPSDIAVEWESNGQPENNYKTTPPVLDSDGSFFLYSKLTVDKSRWQQGNVFSCSVMHEALHNHYTQKSLSLSPGGGGSPSEVQLVQSGAEVKKPGASVKVSCKASGYTFTSYWMNWVRQAPGQGLEWMGNIYPSGGSTNYAQKFQGRVTMTVDTSTSTVYMELSSLRSEDTAVYYCASFSDGYYAYAMDYWGQGTLVTVSSGGGGSGGGGSGGGGSGGGGSEIVMTQSPATLSLSPGERATLSCRASQSVSSYLNWYQQKPGQAPRLLIYYASRRHTGIPARFSGSGSGTDFTLTISSLQPEDFAVYYCQQGYNLPYTFGQGTKVEIKR
# notes: ADAPTIR scFv-Fc-scFv, anti-OX40 N-terminal, anti-4-1BB C-terminal; also called FX01079
# B3: FXX01055 (bispecific antibody)
# chain: SYVLTQPPSVSVAPGQTARITCGGNNIGSKSVNWFQQKPGQAPVLVVYDDSGRPSGIPERFSGSTSGNTATLTISRVEAGDEADYYCQVWDSSSDHVVFGGGTKLTVLGGGGSGGGGSGGGGSGGGGSQVQLVESGGGVVQPGRSLRLSCAASGFTLSYYGMHWVRQAPGKGLEWVAVISHDGSDKYYADSVKGRFTISRDNSKNTLYLQMNSLRAEDTAVYYCSNDQFDPWGQGTLVTVEPKSSDKTHTCPPCPAPPAAAPSVFLFPPKPKDTLMISRTPEVTCVVVDVSHEDPEVKFNWYVDGVEVHNAKTKPREEQYNSTYRVVSVLTVLHQDWLNGKEYKCAVSNKALPAPIEKTISKAKGQPREPQVYTLPPSRDELTKNQVSLTCLVKGFYPSDIAVEWESNGQPENNYKTTPPVLDSDGSFFLYSKLTVDKSRWQQGNVFSCSVMHEALHNHYTQKSLSLSPGGGGSPSEVQLVQSGAEVKKPGASVKVSCKASGYTFTSYWMNWVRQAPGQGLEWMGNIYPGSSTTNYAQKFQGRVTMTVDTSTSTVYMELSSLRSEDTAVYYCASFSDGYYAYAMDYWGQGTLVTVSSGGGGSGGGGSGGGGSGGGGSEIVMTQSPATLSLSPGERATLSCRASQDISNYLNWYQQKPGQAVRLLIYYTSRLHSGIPARFSGSGSGTDYTLTISSLQPEDFAVYFCQQGYTLPYTFGQGTKVEIKR
# notes: ADAPTIR scFv-Fc-scFv, anti-OX40 N-terminal, anti-4-1BB C-terminal; also called FX01055
# Experiments:
# Full-length Human OX40 [1] = target: T1, Full-length Human OX40; assay: flow cytometry, CHO cells expressing human OX40
# Full-length Cyno OX40 = target: T2, Full-length Cyno OX40; assay: flow cytometry on CHOK1SV cells transfected with cynomolgus OX40, goat anti-human Fc secondary antibody, MFI (Mean)
# Procedure: (§1) Serial dilutions of ADAPTIR™ constructs were incubated with cells transfected with human or cynomolgus ECD and subsequently labelled with a fluorescently-conjugated goat-α-human Fc secondary antibody. […] (See Example 16.)
# Full-length Cyno 4-1BB = target: T3, Full-length Cyno 4-1BB; assay: flow cytometry on Jurkat cells transfected with cynomolgus 4-1BB, goat anti-human Fc secondary antibody, MFI (Mean)
# Procedure: as §1
# Human 4-1BB ECD-AFH = target: T5, Human 4-1BB ECD-AFH (human); assay: SPR (T200), construct captured, monomeric ECD as analyte
# T5 construct: entry includes the tags; also called FOB003; HUMAN CD137 ECD-AVI-FLAG-HIS
# T5 sequence (chain, as listed by the source limits assumed): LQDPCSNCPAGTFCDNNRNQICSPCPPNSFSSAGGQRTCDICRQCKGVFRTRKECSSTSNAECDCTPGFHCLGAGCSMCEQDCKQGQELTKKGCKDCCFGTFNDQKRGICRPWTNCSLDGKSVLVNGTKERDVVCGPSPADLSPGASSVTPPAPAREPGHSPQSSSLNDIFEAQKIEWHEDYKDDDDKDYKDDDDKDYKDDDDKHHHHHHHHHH
# Procedure: (§2) Mouse anti-human IgG (GE, BR-1008-39) at 25 μg/ml in 10 mM sodium acetate pH 5.0 was immobilized at a density of ˜10,000 response units (RU) onto each flow cell of a CM5 research-grade sensor chip (GE) by standard amine coupling chemistry. Each binding protein at approximately 100 nM in HBS-EP+ with 0.2% BSA buffer was captured in a flow cell with the immobilized anti-human IgG at a flow rate of 10 μL/min for 20 seconds, leaving one flow cell surface unmodified as the reference. Using a single-cycle kinetics mode, five different concentrations of ECD were sequentially injected through each flow cell at 30 μL/min for 300 seconds followed by a 600 second dissociation period. Regeneration was achieved by injection of 3 M MgCl₂ at a flow rate of 30 μL/min for 30 seconds followed by HBS-EP+ with 0.2% BSA buffer stabilization for 1 min.
# (§3) Sensorgrams obtained from kinetic SPR measurements were analyzed by the double subtraction method. The signal from the reference flow cell was subtracted from the analyte binding response obtained from flow cells with immobilized or captured ligands. Buffer reference responses were then averaged from multiple injections. The averaged buffer reference responses were then subtracted from analyte binding responses, and the final double-referenced data were analyzed with Biacore T200 Evaluation software (2.0, GE), globally fitting data to derive kinetic parameters. All sensorgrams were fitted using a simple one-to-one binding model.
# Human OX40 ECD-AFH = target: T4, Human OX40 ECD-AFH; assay: as above
# Procedure: as §2, §3
# Full-length Human 4-1BB [2] = target: T6, Full-length Human 4-1BB (human, UniProt Q07011 24-255); assay: flow cytometry, Jurkat cells expressing human 4-1BB
# T6 construct: also called FOB005; CD137
# Procedure: as §1
# Full-length Human 4-1BB [3] = target: T6, Full-length Human 4-1BB; assay: cell-based or functional assay
# Full-length Human OX40 [4] = target: T1, Full-length Human OX40; assay: cell-based or functional assay
Binder,EC50 (Full-length Human OX40 [1]) [nM],Max MFI (Full-length Human OX40 [1]) [MFI],EC50 (read off the curve) (Full-length Cyno OX40) [nM],EC50 (read off the curve) (Full-length Cyno 4-1BB) [nM],Kd (Human 4-1BB ECD-AFH) [nM],koff (Human 4-1BB ECD-AFH) [s⁻¹],kon (Human 4-1BB ECD-AFH) [M⁻¹ s⁻¹],Kd (Human OX40 ECD-AFH) [nM],koff (Human OX40 ECD-AFH) [s⁻¹],kon (Human OX40 ECD-AFH) [M⁻¹ s⁻¹],EC50 (Full-length Human 4-1BB [2]) [nM],Max MFI (Full-length Human 4-1BB [2]) [MFI],4-1BB Reporter Assay EC50 (Full-length Human 4-1BB [3]) [nM],4-1BB Reporter Assay Max induction (Full-length Human 4-1BB [3]),OX40 Reporter Assay EC50 (Full-length Human OX40 [4]) [nM],OX40 Reporter Assay Max induction (Full-length Human OX40 [4]),binding result (Full-length Cyno 4-1BB)
B1,0.35,10500,~2,~0.6,7,0.002,280000,0.4,0.00016,400000,0.32,4940,0.014,6.58e+06,0.01,1.97e+06,
B2,1.4,9820,~2,,37,0.0038,100000,0.3,0.00012,450000,0.53,4120,0.025,6.26e+06,0.023,470000,binds
B3,0.4,10400,~2,~1,21,0.0018,84000,0.3,0.00013,440000,0.27,4750,0.013,6.82e+06,0.013,2.03e+06,
